According to US20140322233A1 (Takeda / Millennium, published 2014):
Substitutions are numbered along the chain they refer to.

B1: 5F9-vc-MMAE (antibody, V domains shown)
VH: QVQLQQWGAGLLKPSETLSLTCAVFGGSFSGYYWSWIRQPPGKGLEWIGEINHRGNTNDNPSLKSRVTISVDTSKNQFALKLSSVTAADTAVYYCARERGYTYGNFDHWGQGTLVTVSS
VL: EIVMTQSPATLSVSPGERATLSCRASQSVSRNLAWYQQKPGQAPRLLIYGASTRATGIPARFSGSGSGTEFTLTIGSLQSEDFAVYYCQQYKTWPRTFGQGTNVEIK
modifications: mc-vc-MMAE drug-linker on reduced interchain cysteines of the antibody; positions not given
notes: Antibody drug conjugate of 5F9
B2: 5F9-mc-MMAF (antibody, V domains shown)
VH: B1 VH
VL: B1 VL
modifications: mc-MMAF drug-linker on reduced interchain cysteines of the antibody; positions not given
notes: Antibody drug conjugate of 5F9; average loading about four
B3: 5F9-vc-MMAF (antibody, V domains shown)
VH: B1 VH
VL: B1 VL
modifications: mc-vc-MMAF drug-linker on reduced interchain cysteines of the antibody; positions not given
notes: as for B2
B4: mAb Abx-338 (antibody, IgG1, V domains shown)
VH: QVQLQESGPGLVKPSETLSLTCTVSGGSIRSYYWSWIRQPAGKGLEWIGRIYISGRTTFNPSLKSRVTISVDTSKNQFSLKLSSVTAADTAVYFCARDRYYGYLDYWGQGTLVTVSS
VL: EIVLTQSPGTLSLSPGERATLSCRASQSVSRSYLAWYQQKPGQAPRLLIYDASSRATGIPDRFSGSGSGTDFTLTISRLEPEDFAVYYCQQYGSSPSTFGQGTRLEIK
B5: mAb 8F1 (antibody, IgG1, V domains shown)
VH: QVQLQQPGAELVKPGASVQMSCKASGYIFTGYWMYWVKQRPGQGLEWIGRIHPSDSNTNYNQKFKGKATLTVDKSSSTAYMQLSSLTSEDSAVYYCTHALAYWGQGTLVTVS
VL: DVVLTQTPLTLSITIGQPASISCKSSQSLLYSNGKTYLSWLLQRPGQSPKRLIYLVSQLDSGVPDRFTGSGSGTDFTLKISRVEAEDLGVYYCVQGTHLFTFGSGTKLEIK
B6: mAb Abx-393 (antibody, IgG1, V domains shown)
VH: QVQLQESGPGLVKPSETLSLTCTVSGGSIRHYYWSWIRQPPGKGLEWIGYIYYSGSTNYNLSLKSRVTISRDTSKNQVSLKLSSVTAADTAVYYCAAGMGFDYWGQGTLVTVSS
VL: DIQMTQSPSSLSASIGDRVTITCRASQAIRNDLGWYQLKPGKAPKRLIYSASSLQSGVPSRFSGSGSGTEFTLTISSLQPEDSATYYCLQHNSFPPTFGQGTKVEIK
B7: mAb 6H8 (antibody, IgG2, V domains shown)
VH: QVQLVESGGGVVQPGRSLRLSCAASGFTFSSYGMHWVRQAPGKGLEWVAAIWYDGSNKYYADSVKGRFTISRDNSKNTLYLQMNSLRAEDTAVYYCARGRSSSYFDYWGQGTLVTVSS
VL: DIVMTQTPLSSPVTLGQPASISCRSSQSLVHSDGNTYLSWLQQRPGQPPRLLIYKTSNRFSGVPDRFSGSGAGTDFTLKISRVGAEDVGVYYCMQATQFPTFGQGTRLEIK
B8: mAb 8C2 (antibody, IgG2, V domains shown)
VH: B7 VH with A23V, A49G, D62A, Y94F
VL: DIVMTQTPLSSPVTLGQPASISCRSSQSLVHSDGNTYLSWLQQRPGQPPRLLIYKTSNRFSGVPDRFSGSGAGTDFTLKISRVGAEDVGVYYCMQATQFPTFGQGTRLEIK
B9: mAb 10C10 (antibody, IgG2, V domains shown)
VH: B7 VH
VL: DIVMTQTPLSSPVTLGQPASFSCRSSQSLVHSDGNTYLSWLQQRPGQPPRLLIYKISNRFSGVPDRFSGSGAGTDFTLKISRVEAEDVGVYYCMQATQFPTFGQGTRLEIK
B10: mAb Abx-198 (antibody, IgG1, V domains shown)
VH: EVQLLESGGGLVQPGGSLRLSCAASGFTFSSYAMSWVRQAPGKGLDWVSDISGSGGSTYYADSVKGRFTISRDNSKNTLYLQMHSLSAEDTAIYYCAKRRWQGYFDLWGRGTLVTVSS
VL: EIVLTQSPGTLSLSPGERATLSCRARQRVDSRYLAWYQQKPGQAPRLLIYGASSRATGIPDRFSGSGSGTDFTLTISRLEPEDFAVYYCQQYGSSPLTFGGGTKVEIK
B11: mAb Abx-020 (antibody, IgG1, V domains shown)
VH: QVQLVESGGGLVKPGGSLRLSCAASGFTFSDYYMSWIRQAPGKGLEWISYITSSGSTIYYSASVKGRFTISRDNAKNSLYLQMNSLRAEDTAVYYCARDFSGWFGVHFDYWGQGTLVTVSS
VL: DIVMTQTPLSLSVTPGQPASISCKSSQSLLHSDGKTYLYWYLQKPGQPPQLLIYEVSNRFSGVPNRFSGSGSGTDFTLKISRVEAEDVGVYYCMQSIQLTWTFGQGTKVEIK
B12: mAb Abx-106 (antibody, IgG1, V domains shown)
VH: B4 VH with G27A, R30S, S31H, T58S, F59Y, I69V, F94Y, Y100L, Y101T, L104F
VL: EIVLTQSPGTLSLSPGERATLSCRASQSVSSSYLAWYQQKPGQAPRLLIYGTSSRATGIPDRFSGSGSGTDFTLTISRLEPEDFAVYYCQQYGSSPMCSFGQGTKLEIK
B13: mAb Abx-012 (antibody, IgG1, V domains shown)
VH: B4 VH with G27A, R30S, S31H, T58S, F59Y, I69V, F94Y, Y100L, Y101T, L104F
VL: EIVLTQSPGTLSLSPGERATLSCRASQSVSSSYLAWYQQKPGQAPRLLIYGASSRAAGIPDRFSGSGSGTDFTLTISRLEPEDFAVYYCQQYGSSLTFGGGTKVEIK
notes: also called Abx-12
B14: mAb Abx-221 (antibody, V domains shown)
VH: EVQLLESGGGLVQPGGSLRLSCAASGFTFSRYAMNWVRQAPGKGLEWVSGISGSGGSTYYADSVKGRFTISRDNSKNTLYLQMNSLRAEDTAVYYCAKDRDFWSGPFDYWGQGTLVTVSS
VL: EIVMTPSSATLSVSPGERATLSCRASQSVSRSLAWYQQKPGQAPRLLIYGASTRATGIPARFSGSGSGTEFTLTISSLQSEDVAVYYCQQYNNWMCSFGQGTKLEIK
B15: mAb Abx-229 (antibody, V domains shown)
VH: B14 VH with S57R
VL: B14 VL with S32N, V83F, Q89H, N92S
B16: mAb 10D3 (antibody, V domains shown)
VH: B1 VH
VL: EIVLTQSPGTLSLSPGERATLSCRASQSVSSRYLAWYQQKPGQAPRLLIYGASSRATGTPDRFSGSGSGTDFTLTISRLEPEDFAVYFCQQYERSFTFGPGTKVD
B17: mAb 3G1 (antibody, IgG1, V domains shown)
VH: QVQLKESGPGLVAPSQSLSITCTVSGFSLSRNAISWVRQPPGKGLEWLGVIWTGGGTNYNSALKSRLSIRKENSKSQVFLKMNSLQTEDTARYFCARSGYDGFDYWGQGTLVTVSA
VL: QIVLTQSPAIMSASPGEKVTMTCSASSSVNYMHWYQQKSGTSPKRWIYDTSKLASGVPARFSGSGSGTSYSLTITSMEAEDAATYYCQQWSGNPYTFGGGTKLEIK

Each binder was assayed against T1, human GCC, full length with myc tag (293-GCC#2 cells) (human, UniProt P25092 24-1073) (assay: indirect immunofluorescence flow cytometry, 293 GCC #2 cells;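 further: cells exposed to the test antibodies for 1 h on ice before flow cytometric readout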).
T1 construct: not shown: myc tag
T1 sequence (P25092 24-1073): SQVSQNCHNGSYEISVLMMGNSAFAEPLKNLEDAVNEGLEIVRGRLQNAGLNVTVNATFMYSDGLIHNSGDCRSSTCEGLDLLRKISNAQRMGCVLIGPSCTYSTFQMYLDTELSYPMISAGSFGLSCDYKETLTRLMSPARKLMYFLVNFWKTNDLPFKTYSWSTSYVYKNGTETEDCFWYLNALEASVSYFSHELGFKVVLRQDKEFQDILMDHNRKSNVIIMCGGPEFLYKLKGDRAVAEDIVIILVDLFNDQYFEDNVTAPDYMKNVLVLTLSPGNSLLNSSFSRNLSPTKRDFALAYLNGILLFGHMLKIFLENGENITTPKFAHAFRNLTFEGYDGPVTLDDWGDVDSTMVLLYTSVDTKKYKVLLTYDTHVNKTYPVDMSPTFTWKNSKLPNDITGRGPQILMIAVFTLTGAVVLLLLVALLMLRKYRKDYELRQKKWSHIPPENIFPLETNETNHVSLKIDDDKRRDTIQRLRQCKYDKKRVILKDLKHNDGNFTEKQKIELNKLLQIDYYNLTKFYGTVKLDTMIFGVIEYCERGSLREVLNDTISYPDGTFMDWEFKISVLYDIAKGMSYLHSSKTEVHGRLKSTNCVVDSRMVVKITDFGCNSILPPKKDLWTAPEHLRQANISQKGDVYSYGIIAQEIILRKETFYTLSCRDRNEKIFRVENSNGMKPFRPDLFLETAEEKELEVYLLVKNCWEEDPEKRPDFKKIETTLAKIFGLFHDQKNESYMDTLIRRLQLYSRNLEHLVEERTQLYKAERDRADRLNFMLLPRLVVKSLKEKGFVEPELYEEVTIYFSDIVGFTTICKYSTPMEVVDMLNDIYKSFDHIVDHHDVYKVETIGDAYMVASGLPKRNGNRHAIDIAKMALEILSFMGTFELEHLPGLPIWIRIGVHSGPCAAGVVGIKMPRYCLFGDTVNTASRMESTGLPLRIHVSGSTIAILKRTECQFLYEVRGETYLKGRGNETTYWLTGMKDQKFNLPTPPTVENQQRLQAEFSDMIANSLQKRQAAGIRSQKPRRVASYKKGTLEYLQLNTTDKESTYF

Row | Binder | MFI at 0.001 µg/ml | MFI at 0.004 µg/ml | MFI at 0.016 µg/ml | MFI at 0.063 µg/ml | MFI at 0.25 µg/ml | MFI at 1 µg/ml
1 | B1 | 445 | 696 | 1790 | 4850 | 7300 | 7420
2 | B2 | 483 | 776 | 2110 | 5350 | 7400 | 7580
3 | B3 | 440 | 707 | 1500 | 4830 | 7560 | 7780

These binders were tested against T2, human guanylyl cyclase C (GCC), full length (human, UniProt P25092 24-1073) (assay: FACS with GCC-expressing cells (cell line not given)).
T2 construct: Full length GCC on transfected HT-29 (clones #2, #5, #18) and CT26 (#2.5, #32) cells and endogenous GCC on T84 cells; also called hGCC; STAR
T2 sequence (P25092 24-1073 limits assumed): as the sequence (P25092 24-1073) above

Row | Binder | EC50 [nM]
4 | B4 | 90

The binders below were run against T2, human guanylyl cyclase C (GCC), full … (assay: FACS, HT-29#2 cells (full length GCC transfected)).

Row | Binder | binding result
5 | B5 | binds

Each binder was assayed against T1, human GCC, full length with myc tag … (assay: cell-based or functional assay).

Row | Binder | LD50, indirect cytotoxicity with DM1-conjugated mouse anti-human IgG, 293-GCC#2 cells, WST after 4 days [pM]
6 | B6 | > 5400
7 | B7 | > 4820
8 | B8 | 2040
9 | B9 | 2440
10 | B10 | > 5400
11 | B11 | 569
12 | B12 | 166
13 | B13 | 279
14 | B4 | 267
15 | B14 | 207
16 | B15 | 78
17 | B16 | 1600

The binders below were run against T3, TOK107-hIg (human) (assay: ELISA on coated TOK107-hIg).
T3 construct: Expressed in HEK293 cells; Fc mutated at the CH1 cysteine and at lysine 235 and glycine 237 to alanine; also called hGCC-ECD/hIgG1 Fc; TOK107-hIgG
T3 sequence (chain, as listed by the source limits assumed): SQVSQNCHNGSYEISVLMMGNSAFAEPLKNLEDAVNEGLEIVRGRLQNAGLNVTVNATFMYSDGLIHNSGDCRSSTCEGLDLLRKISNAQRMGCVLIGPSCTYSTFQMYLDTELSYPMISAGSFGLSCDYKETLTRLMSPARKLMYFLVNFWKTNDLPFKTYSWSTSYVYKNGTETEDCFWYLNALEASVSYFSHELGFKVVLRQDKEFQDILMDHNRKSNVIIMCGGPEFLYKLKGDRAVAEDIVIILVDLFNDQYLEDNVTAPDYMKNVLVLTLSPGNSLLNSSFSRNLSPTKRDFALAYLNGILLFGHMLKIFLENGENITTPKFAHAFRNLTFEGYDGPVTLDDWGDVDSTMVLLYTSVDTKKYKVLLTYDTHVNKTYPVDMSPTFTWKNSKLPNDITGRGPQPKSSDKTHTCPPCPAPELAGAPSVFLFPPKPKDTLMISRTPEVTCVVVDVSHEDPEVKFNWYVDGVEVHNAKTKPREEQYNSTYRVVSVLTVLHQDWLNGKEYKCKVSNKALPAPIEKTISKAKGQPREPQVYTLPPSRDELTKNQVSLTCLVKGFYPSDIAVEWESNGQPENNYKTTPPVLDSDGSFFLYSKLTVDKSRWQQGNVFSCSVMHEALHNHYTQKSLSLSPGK

Row | Binder | binding result
18 | B6 | binds
19 | B7 | binds
20 | B8 | binds
21 | B12 | binds
22 | B5 | binds
23 | B16 | binds

What follows are binders tested against T3, TOK107-hIg (assay: ELISA against TOK107-hIg).

Row | Binder | EC50 [nM]
24 | B10 | 47.7
25 | B11 | 4.58
26 | B13 | 0.555
27 | B4 | 0.0049
28 | B14 | 6.55
29 | B15 | 29.5
30 | B17 | 22.8

What follows are binders tested against T2, human guanylyl cyclase C (GCC), full … (assay: FACS with GCC-expressing cells (cell line not given); FACS EC50 on GCC-expressing cells).

Row | Binder | EC50 [nM]
31 | B17 | 0.58

These binders were tested against T2, human guanylyl cyclase C (GCC), full … (assay: cell-based or functional assay).

Row | Binder | LD50, direct cytotoxicity, CT 26 GCC #2.5 cells [nM] | LD50, direct cytotoxicity, CT 26 GCC #32 cells [nM] | LD50, direct cytotoxicity, HT 29 GCC #2 cells [nM] | LD50, direct cytotoxicity, HT 29 GCC #5 cells [nM] | LD50, direct cytotoxicity, HT 29 GCC #18 cells [µM] | LD50, direct cytotoxicity, HT29 GCC#5 cells [nM]
32 | B1 | > 500 | 267 | 24.1 | 654 | 0.555 | 0.59
33 | B2 | > 10 | 0.064 | 3.1 | > 10000 | > 10 | > 10
34 | B3 | > 10 | 0.004 | 0.127 | 563 | > 10 | –
